From the Immune Epitope Database (IEDB)

Columns and labels:
[1] = biological target: HLA-B*27:03; experiment: IEDB peptide-MHC binding, purified MHC/competitive/fluorescence; filed as Kd, often an IC50 or EC50 that approximates it; ≥ and ≤ were set here for values at or beyond the usual limits of such assays; details: source organism: Xanthobacter autotrophicus Py2
[2] = biological target: HLA-A*25:01; experiment: as above; details: source organism: Xanthobacter autotrophicus Py2
[3] = biological target: HLA-A*03:01; experiment: as above; details: source organism: Xanthobacter autotrophicus Py2
[4] = biological target: HLA-A*69:01; experiment: as above; details: source organism: Xanthobacter autotrophicus Py2
[5] = biological target: HLA-A*68:02; experiment: as above; details: source organism: Xanthobacter autotrophicus Py2
[6] = biological target: HLA-B*15:17; experiment: as above; details: source organism: Xanthobacter autotrophicus Py2
[7] = biological target: HLA-A*02:12; experiment: as above; details: source organism: Xanthobacter autotrophicus Py2
[8] = biological target: HLA-B*46:01; experiment: as above; details: source organism: Xanthobacter autotrophicus Py2
[9] = biological target: HLA-A*29:02; experiment: as above; details: source organism: Xanthobacter autotrophicus Py2
[10] = biological target: HLA-A*02:01; experiment: as above; details: source organism: Xanthobacter autotrophicus Py2
[11] = biological target: HLA-B*57:01; experiment: as above; details: source organism: Xanthobacter autotrophicus Py2
[12] = biological target: HLA-A*26:01; experiment: as above; details: source organism: Xanthobacter autotrophicus Py2
[13] = biological target: HLA-B*18:01; experiment: as above; details: source organism: Xanthobacter autotrophicus Py2
[14] = biological target: HLA-B*51:01; experiment: as above; details: source organism: Xanthobacter autotrophicus Py2
[15] = biological target: HLA-A*80:01; experiment: as above; details: source organism: Xanthobacter autotrophicus Py2
[16] = biological target: HLA-A*01:01; experiment: IEDB peptide-MHC binding, purified MHC/direct/fluorescence; filed as Kd, often an IC50 or EC50 that approximates it; ≥ and ≤ were set here for values at or beyond the usual limits of such assays; details: source organism: Orthohantavirus andesense
[17] = biological target: HLA-A*25:01; experiment: as above; details: source organism: Orthohantavirus tulaense
[18] = biological target: HLA-B*07:02; experiment: as above; details: source organism: Orthohantavirus tulaense
[19] = biological target: HLA-B*40:01; experiment: as above; details: source organism: Orthohantavirus tulaense
[20] = biological target: HLA-A*29:02; experiment: as above; details: source organism: Orthohantavirus tulaense
[21] = biological target: HLA-B*51:01; experiment: as above; details: source organism: Orthohantavirus tulaense
[22] = biological target: HLA-A*80:01; experiment: as above; details: source organism: Orthohantavirus andesense
[23] = biological target: HLA-C*07:02; experiment: as above; details: source organism: Rickettsia bellii RML369-C
[24] = biological target: HLA-C*08:02; experiment: as above; details: source organism: Rickettsia bellii RML369-C
[25] = biological target: HLA-C*03:03; experiment: as above; details: source organism: Rickettsia bellii RML369-C
[26] = biological target: HLA-C*05:01; experiment: as above; details: source organism: Rickettsia bellii RML369-C
[27] = biological target: HLA-C*15:02; experiment: as above; details: source organism: Rickettsia bellii RML369-C
[28] = biological target: HLA-C*12:03; experiment: as above; details: source organism: Rickettsia bellii RML369-C
[29] = biological target: HLA-C*14:02; experiment: as above; details: source organism: Rickettsia bellii RML369-C
[30] = biological target: HLA-A*68:23; experiment: IEDB peptide-MHC binding, purified MHC/competitive/fluorescence; filed as Kd, often an IC50 or EC50 that approximates it; ≥ and ≤ were set here for values at or beyond the usual limits of such assays; details: source organism: Rickettsia bellii RML369-C
[31] = biological target: HLA-B*27:20; experiment: as above; details: source organism: Rickettsia bellii RML369-C
[32] = biological target: HLA-B*15:02; experiment: as above; details: source organism: Rickettsia bellii RML369-C
[33] = biological target: HLA-C*06:02; experiment: as above; details: source organism: Rickettsia bellii RML369-C
[34] = biological target: HLA-B*83:01; experiment: as above; details: source organism: Rickettsia bellii RML369-C
[35] = biological target: HLA-B*45:06; experiment: as above; details: source organism: Rickettsia bellii RML369-C
[36] = biological target: HLA-B*15:42; experiment: as above; details: source organism: Rickettsia bellii RML369-C

GQMYNMNTL
Kd [1]: ≥ 20000 nM
Kd [2]: ≥ 20000 nM
Kd [3]: ≥ 20000 nM
Kd [4]: ≥ 20000 nM
Kd [5]: ≥ 20000 nM
Kd [6]: ≥ 20000 nM
Kd [7]: 1.4 nM
Kd [8]: ≥ 20000 nM
Kd [9]: ≥ 20000 nM
Kd [10]: ≥ 20000 nM
Kd [11]: ≥ 20000 nM
Kd [12]: ≥ 20000 nM
Kd [13]: ≥ 20000 nM
Kd [14]: ≥ 20000 nM
Kd [15]: ≥ 20000 nM

ATATWFQYY
Kd [16]: 16.3 nM
Kd [17]: ≥ 20000 nM
Kd [18]: ≥ 20000 nM
Kd [19]: ≥ 20000 nM
Kd [20]: ≤ 1 nM
Kd [21]: ≥ 20000 nM
Kd [22]: 14.2 nM

FAYKTGSSM
Kd [23]: 876 nM
Kd [24]: 90 nM
Kd [25]: ≤ 1 nM
Kd [26]: 1480 nM
Kd [27]: 4 nM
Kd [28]: ≤ 1 nM
Kd [29]: 114 nM
Kd [30]: 51.2 nM
Kd [31]: 23.4 nM
Kd [32]: 12.7 nM
Kd [33]: 125 nM
Kd [34]: ≥ 5000 nM
Kd [35]: ≥ 5000 nM
Kd [36]: ≥ 5000 nM
